Measurements published in the supplement of paper PMC10724198.
± gives the standard deviation of the averaged measurements.

system: Saccharomyces cerevisiae; experiment: protein stability index of tFT-peptide fusion (C-terminal peptide) (PSI (0-1 scale)); higher = more stable (slower turnover); settings: genetic background: wild type; temperature: 30 C
Method: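 Multiplexed protein stability (MPS) profiling in S. cerevisiae. Random 12-aa peptides (tFT-X12 library) are fused to the C-terminus of a sfGFP-mCherry tandem fluorescent timer, after mCherry and a GGGS linker. Cells are FACS-sorted into 8 mCherry/sfGFP bins and deep-sequenced. The protein stability index (PSI) is the read-weighted bin average, scaled from 0 (unstable) to 1 (stable). Only peptides with >10 reads are reported; cells were grown at 30 °C in SC-His with glucose.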
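Also: PSI is a weighted mean of sequencing reads over stability bins, variants kept only with over 10 reads, mCherry proximal and sfGFP distal, peptide attached via GGGS linker.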

Sequence | protein stability index
KRHCDRVLKMWH | 0.641 ± 0.11
KRKEEKKPLINE | 0.734 ± 0.072
KRKEKAKRTKHV | 0.641 ± 0.035
KRKKKKKRRTKK | 0.6442 ± 0.0045
KRKKKRRKETLY | 0.641 ± 0.037
KRKKQGNKKQEE | 0.6893 ± 0.0017
KRKRQKNIRNER | 0.704 ± 0.12
KRKTKIEQDQRQ | 0.6704 ± 0.0056
KRREEKKRKRVE | 0.648 ± 0.094
KRRQGRGAKGGE | 0.629 ± 0.045
KRRSHRQHSRRR | 0.559 ± 0.032
KRSARRAGRATP | 0.761 ± 0.14
KRVTYKRIRSKI | 0.799 ± 0.029
KSAGLKPNWSTT | 0.696 ± 0.065
KSDSDNCQALTY | 0.679 ± 0.067
KSLRLFSVLSFV | 0.627 ± 0.016
KSVAKLGHGGSP | 0.677 ± 0.064
KSVSVDGYNKED | 0.646 ± 0.01
KSYRVGKMAAQR | 0.683 ± 0.012
KTAKSEEPILYR | 0.753 ± 0.0083
KTEKTKIKKKRM | 0.684 ± 0.0075
KTFPPVTLDFSS | 0.609 ± 0.013
KTINKEQKKKEM | 0.7 ± 0.036
KTKERARTISRV | 0.721 ± 0.024
KTKKPIILDTSN | 0.6406 ± 0.0047

Sequence | protein stability index
KTKKYIQKNKKR | 0.773 ± 0.012
KTNNQVDTSVKD | 0.645 ± 0.054
KTNNYPDNNPPG | 0.611 ± 0.016
KTRHMQGNRVDS | 0.603 ± 0.045
KTRPVCKVSCKL | 0.77 ± 0.092
KTRRHDQKMEKI | 0.659 ± 0.026
KTSQYKPREKID | 0.736 ± 0.04
KTTETVLRKRTK | 0.737 ± 0.049
KTTKEKESQEKN | 0.723 ± 0.029
KTYKNKTQQNAS | 0.746 ± 0.045
KVGWGMRGVRGG | 0.66 ± 0.015
KVHVILTGKYEI | 0.7012 ± 0.0025
KVREGEARKEST | 0.6826 ± 0.0017
KVSKHIKTNDSI | 0.65 ± 0.02
KWCQSNNIVKRT | 0.7 ± 0.011
KYFCSLAFFLFA | 0.502 ± 0.0073
KYINSASLIVYY | 0.693 ± 0.06
LAAGPSERTART | 0.685 ± 0.052
LACMWICPHIQA | 0.606 ± 0.023
LADLLRCSYSLS | 0.677 ± 0.046
LAGRARLVMCPR | 0.639 ± 0.0068
LAGVSTPLPPPP | 0.696 ± 0.029
LAHAGSRPPTPG | 0.6754 ± 0.0016
LALHPPPRVPPT | 0.701 ± 0.036
LANVGLDVSRIS | 0.696 ± 0.012

Sequence | protein stability index
LAPPLILLPFVD | 0.699 ± 0.033
LAPPPAAPRFCL | 0.652 ± 0.008
LAPPYPSSASSH | 0.688 ± 0.022
LAQLPPSLRFPP | 0.72 ± 0.1
LARLPPPSLSRV | 0.713 ± 0.055
LASTMTIMLPGC | 0.703 ± 0.15
LASVLRESRIST | 0.671 ± 0.0078
LATDVGHRLLGI | 0.707 ± 0.042
LAVWSVVGGGVV | 0.637 ± 0.008
LAWLGLHERTLF | 0.685 ± 0.0077
LAYIFTPVRTTG | 0.799 ± 0.26
LCCLSSLAMLFF | 0.7 ± 0.12
LCLIGQPQTRVS | 0.695 ± 0.17
LCLTLPSDSSAP | 0.841 ± 0.073
LCRRGGRSACGS | 0.7019 ± 0.0067
LCSGRGGRVCGG | 0.669 ± 0.038
LCVRFFGVKWAF | 0.594 ± 0.0095
LCWQALSLGVMC | 0.526 ± 0.023
LDAFYVNVGLFG | 0.732 ± 0.045
LDGLLVCSNWPA | 0.805 ± 0.07
LDHFGASYCPRG | 0.706 ± 0.027
LDPGPLVRTPRL | 0.692 ± 0.076
LDPHPFRGHACC | 0.779 ± 0.3
LDPPCPTARLPH | 0.61 ± 0.052
LDSMSRPGATVS | 0.668 ± 0.051

Sequence | protein stability index
LDVAFLMSRFSS | 0.731 ± 0.024
LDVGYVLGLERS | 0.681 ± 0.033
LEGGWRVGGGRL | 0.683 ± 0.015
LEGYFMLPRSAW | 0.736 ± 0.065
LENIHVLETIFT | 0.6022 ± 0.0054
LERCKSLDSIVL | 0.701 ± 0.071
LESLWEAIRTLF | 0.5136 ± 0.005
LFAKVVSGYDLG | 0.711 ± 0.024
LFALRLLSREGI | 0.604 ± 0.046
LFDGPFPHLFPT | 0.718 ± 0.091
LFELVRTCDRCV | 0.7 ± 0.03
LFFLLPSSPIGF | 0.705 ± 0.011
LFFLPSSSLSPL | 0.731 ± 0.022
LFFRFGRWFLGF | 0.671 ± 0.027
LFGHMENNLLKS | 0.722 ± 0.046
LFGQTVLLSAGT | 0.713 ± 0.018
LFHFLSPVALPS | 0.6649 ± 0.0041
LFITTSLFRPFA | 0.53 ± 0.015
LFLPDPHSLTFH | 0.744 ± 0.044
LFLSLFLFPSLS | 0.57 ± 0.03
LFLYPFCVGGFL | 0.714 ± 0.016
LFPLHLPSPPPG | 0.7207 ± 0.0018
LFPLISPLQSER | 0.737 ± 0.026
LFPVTSLFPPLP | 0.706 ± 0.012
LFSSSLISPLFA | 0.582 ± 0.025

Sequence | protein stability index
LFTLFPPFFYSR | 0.681 ± 0.0079
LFVGCRDPLCGV | 0.723 ± 0.00029
LFVMGSACPLRI | 0.681 ± 0.029
LFVPAASRLAFS | 0.686 ± 0.011
LFVSGVPRSWDR | 0.707 ± 0.19
LGAAMRSAVEAA | 0.64 ± 0.013
LGCGVSLWVVPG | 0.712 ± 0.034
LGCSVGESVGAG | 0.68 ± 0.03
LGFNRRSKTRMI | 0.704 ± 0.014
LGGARWSGLPHV | 0.707 ± 0.085
LGGGAGAGYWVG | 0.741 ± 0.032
LGGGAGLRCGGF | 0.673 ± 0.02
LGGGARGSGGGA | 0.727 ± 0.028
LGGGGKNGSERV | 0.696 ± 0.017
LGGRTWTLVRSG | 0.64 ± 0.033
LGGVLSRQPYSE | 0.643 ± 0.014
LGGVRRRDWQEG | 0.677 ± 0.016
LGIVSLDWLWLR | 0.513 ± 0.043
LGKSRVHLWTGT | 0.706 ± 0.04
LGLFECAFLDRS | 0.736 ± 0.013
LGLPISREASVG | 0.637 ± 0.011
LGLWSSVFGSSL | 0.743 ± 0.018
LGPAPFSPPPPL | 0.738 ± 0.041
LGPLPHDGFSMF | 0.761 ± 0.011
LGPPPPPASVCR | 0.647 ± 0.012

Sequence | protein stability index
LGPRRPGQSGSR | 0.712 ± 0.011
LGPSTCPCEVQS | 0.677 ± 0.015
LGRGRGGCLGEL | 0.5915 ± 0.0034
LGRNLGKDPVEV | 0.593 ± 0.11
LGRNTVIGLCLE | 0.642 ± 0.1
LGRRVGWEVSGE | 0.687 ± 0.024
LGSSTGSVESLS | 0.737 ± 0.048
LGTETASSGFSG | 0.691 ± 0.029
LGTLLWWGAGRG | 0.708 ± 0.02
LGVAFCAPRLFY | 0.743 ± 0.023
LGVDFCRGVVVE | 0.654 ± 0.035
LGVGGRWVVPGA | 0.722 ± 0.032
LGVGSVGAKCGS | 0.639 ± 0.0071
LGVVGYGLGGGK | 0.707 ± 0.0096
LHAGWNLISSRL | 0.633 ± 0.037
LHAPFPHPPPPP | 0.6713 ± 0.005
LHFGSSSSRDFM | 0.709 ± 0.027
LHPTPPPVLAPP | 0.654 ± 0.12
LHRFPMISLLGP | 0.699 ± 0.018
LICRRVRLSMRG | 0.571 ± 0.028
LILLTIQSQPPV | 0.622 ± 0.0018
LIPRCLIPVTRY | 0.655 ± 0.018
LIQSDKTPRTTR | 0.696 ± 0.012
LIVIGGGAVNGV | 0.63 ± 0.069
LIWGRGGSRTGG | 0.747 ± 0.062

Sequence | protein stability index
LKDQFKNKNKSS | 0.531 ± 0.04
LKELDTGVEQDE | 0.671 ± 0.0096
LKIDTCSQQEEN | 0.675 ± 0.11
LKKKKNKKQKTE | 0.6152 ± 0.0053
LKLQGGCLETGA | 0.602 ± 0.015
LKNVKFTNNRKK | 0.694 ± 0.014
LKQHDSNESASR | 0.6565 ± 0.001
LKTGTAAGVKDH | 0.684 ± 0.049
LLAGEDGGVGEE | 0.653 ± 0.057
LLALAPFWVRHK | 0.68 ± 0.011
LLALPFPPSSLF | 0.701 ± 0.054
LLALQCSLFTPH | 0.678 ± 0.15
LLAPPLPPPRHG | 0.674 ± 0.018
LLCSSFSFHCFP | 0.667 ± 0.0068
LLCYSGVIFGSV | 0.59 ± 0.087
LLDEHGKRRKKI | 0.713 ± 0.0011
LLFCFIPCVFWG | 0.5096 ± 0.0029
LLFFSCGGVSSV | 0.657 ± 0.053
LLFFSLFFSPLP | 0.642 ± 0.041
LLFFSSCLDCFV | 0.635 ± 0.026
LLFPPVCRPCLS | 0.605 ± 0.11
LLFSRVDFSSPL | 0.804 ± 0.098
LLFYSVPLSSSF | 0.655 ± 0.072
LLGRSPSPTRPT | 0.65732 ± 0.00035
LLGVGYGSGGWR | 0.633 ± 0.089

Sequence | protein stability index
LLGVYVRSFGSK | 0.698 ± 0.015
LLHMSRLWYTTF | 0.595 ± 0.022
LLKNPFRGTSVF | 0.737 ± 0.11
LLLFPRFPPPPL | 0.711 ± 0.038
LLLPFVSPPVYS | 0.569 ± 0.031
LLLPSLAPTPTA | 0.654 ± 0.025
LLLSALLLSASP | 0.625 ± 0.0083
LLLSALSRRPSF | 0.678 ± 0.023
LLLSRLSPPPPS | 0.716 ± 0.021
LLLVLGLSLVGL | 0.564 ± 0.035
LLMHPCTVELIS | 0.594 ± 0.042
LLPCLSSLPPLP | 0.7 ± 0.064
LLPHALHVPFHL | 0.707 ± 0.1
LLPHLLVLLPSS | 0.623 ± 0.0049
LLPISFVSPPPG | 0.6915 ± 0.0026
LLPLPPPPPPPP | 0.685 ± 0.063
LLPLRPRSLGPP | 0.693 ± 0.0011
LLPPALPESPPP | 0.649 ± 0.0072
LLPPPSTPPRLI | 0.716 ± 0.052
LLPPTPIAFPPS | 0.728 ± 0.073
LLRALPSYRPFP | 0.696 ± 0.016
